Measured values as given in the nanobody polyreactivity screen of Harvey et al. (2022).

Assay: yeast display, Sf9 membrane polyspecificity reagent, FACS + sequencing; frameworks hold sequencing errors
Method in brief: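 Nanobodies came from a synthetic yeast display library in Saccharomyces cerevisiae BJ5465, induced with galactose for 36–48 hours and stained for 1 hour at 4 °C with 10% biotinylated, detergent-solubilized Sf9 membrane reagent. Cells were enriched on streptavidin microbeads and then FACS-sorted, with low and high (top ~1%) gates set on anti-HA fluorescence for expression and streptavidin fluorescence for reagent binding. Each polyreactivity label reflects the gate a clone came from. Genes were amplified by colony PCR, sequenced by MiSeq 2 × 250 and filtered by CDR length.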

Row | Sequence | polyreactivity (PSR sort gate)
1 | QVQLVESGGGLVQAGGSLRLSCAASGRTFPGYGMGWYRQAPGKERELVAVITSNGGITYYADSVKGRFTISRDNAKNTVYLQMNSLKPEDTAVYYCAAYEIYYEFDSWGQGTQVTVSS | low polyreactivity
2 | QVQLVESGGGLVQAGGSLRLSCAASGRTFHYYAMGWYRQAPGKERELVAAISVSGGSTYYADSVKGRFTISRDNAKNTVYLQMNSLKPEDTAVYYCAADDYLVEHDYWGQGTQVTVSS | low polyreactivity
3 | QVQLVESGGGLVQAGGSLRLICAASGRIFGTNAIGWYRQAPGQEREVVATITRGGGNTYYADSVKGRFTISRDNAKNTVYLQMNSLKPEDTAVYYCAAKFHRFAWYAHYDYWGPGTQVTVSS | low polyreactivity
4 | QVQLVESGGGLFQAGGSLRLICAASGRTYYAYARGWYRQAPGKERELVAAITSGGSTYYADSVKGRFTISRDNAKNTVYLQMNSLKPEDTAVYYCNAGYYQWPFSGYDYWGQGTQVTVSS | low polyreactivity
5 | QVQLVESGGGLVQAGGSLRLSCAASGSIFDDNAMGWYRPAPGKERELVATINYGGGRTSYADSVKGRSTISRDNAKNTVYLQMNSLKPEDTAVYYCAADPRQKEDYWGQGTQVTVSS | low polyreactivity
6 | QVQLVESGGGLVQAGGSLRLSCAAYGYIFRLYAMGWYRQAPGKERELVAGISTGGRTNYADSVKGRFTISRDNAKNTVYLQMNSLKPEDTAVYYCAAAWHTAYWVVSDSLGGGYWGQGTQVTVSS | low polyreactivity
7 | QVQLVDSGGGLVHAGGSLRLSCAASGSIFGANTMGWYRPAPGKERELVAGITSRARTYYADSVKGRFTISRDNANNNVYLQMNSLKPEDTAVYYCAAKYAWRRYGYWGQGTQVTVSS | high polyreactivity
8 | QVQLVESGGGLVQAGGSLRLSCAASGSTFALYAMGWYRQAPGKERELVAVITSGGSTYYADSVKGRFTISRDNAKNTVYLQMNSLKPEDTAVYYCAARRHVRKGPLGYWGQGTQVTLSS | high polyreactivity
9 | QVQLVESGGGLVQAGGSLRLSCAASGSIFAQYAMGWYRQAPGKERELVATISSVGSTNYADSVKGRFTISRDNAKNSVYLLMNSLKPEDTAVYYCNAVRSGWGYFYGLNSWGQGTQVTVSS | low polyreactivity
10 | QVQVVESGGGLVQAGGSLRLSCAASGSIFGANTMGWYRPAPGKERELVAAISSGGNTYYADSVKGRFTISRDNAKNTVYLQMNSLKPEDTAVYYCNAQTRYLYQYGYLGGTGYNYWGQGTQVTVSS | low polyreactivity
11 | QVQLVESGGGLVQAGGSLRLSCSASGLIFSTYAMGWYRQAPGKVRELVAAISGTGSTYYADSVKGRFTISRDNAKNTVYLQMNRLKPEDTSVYYCAAGATLWLLGLKMGYWGQGTQVTVSS | low polyreactivity
12 | QVQLVESGGGLVQAGGSLRLSCAASGSTFSRYTMGRYRQAPGKERELVAAIRRSGASTYYADSVKGRFTISRDNAKNTVYLQMNSLKPEDTAVYYFAVGRYRYGYWGQGTQVTVSS | high polyreactivity
13 | QVQLVESGGGLVQAGGSLRLSCAASGFTFPANDMGWYIQAPGKERELVATITWSGGNTYYADSVKGRFTISRDNAKNTVYLQMNSLKPEDTAVYYCAKDYDPYHEQQSSEHDDYWGQGTQVTVSS | low polyreactivity
14 | QVQLVESGGGLVQAGGSLRLICAASGRIFYRYAMGWYRQAPGKERELVAAITWRGGSTYYADSVKGRFTISRDNAKNTVYLQMNSLKPEDTAVYYCAAAAYGVPWRSYLGVFKSHMDYWGQGTQVTVSS | high polyreactivity
15 | QVQLVESGGGLVQAGGSLRLSCAASGRILNWNVMGWYRQAPGKERELVAGISSDGSTYADSVKGRFTISRDNAKNTVYFQMNSLKPEDTAVYYCAADRVGLSRGYDYWGQGTQVTVSS | low polyreactivity
16 | QVQLVESGGGLVQAGGSLRLSCAASGSTITYYTMGWYRQAPGKERELVAAISGSGGRTYYADSVKGRFTISRDNAKNTVYLQMNSLKPEDTAVYYCAAVYQLSRYDYWGQGTQVTVSS | high polyreactivity
17 | QVQLVESGGRLVQAGGSLRLSCAASGRIFSPYAMGRYRPAPGKERELVAAITQSGGITSYADSVKGRFTISRDNAKNTVYLQMISLKPEDTAVYYCNKDVWDGYDWPEFDYWGQGTQVTVSS | low polyreactivity
18 | QVQLVESGGGLVQAGGSLRLSCAASGSILGGNAKGWYRQAPGKERELVAAITFSGGGTYYADSVKGRFTISRDNAKNTVYLQMNSLKPEDTAVYYCAADKDGYTYEFDYWGQGTQVTVSS | low polyreactivity
19 | QVQLVESGGGLVQAGGSLRLSCAASGRIFHRYDMGWDRQAPGKEREFVAAISSRGGSTYYADSVKGRVTISRDYAKNTVYLQMNSLKPEDTAVYYCAAQNGYRSGEFYYWGQGTQVTVSP | high polyreactivity
20 | QVQLVESGGGLVQAGGSLRLSCAASGRTFDEYAMVWYRQAPGKERELVAAINSSGNTYYADSVKGRFTISRDNAKNTVYLQMNSLKPEDTAVYYCAVRSYNTISDDMDYWGQGTQVTVSS | low polyreactivity
21 | QVQLVESGRGLVQAGGSLRLSCAASGRIFVYYAMGWYRQAPGKERELVATISSGGSTYYADSVKGRFTISRDNAKNTVYLQMNSLKPEDTAVYYCAADNVNRYLAYYYKGDYWGQGTQVTVSS | low polyreactivity
22 | QVQLVESGRCLVQDGRSLRLSCAASGRTFYGNAMGWYRQAPAKERELVAAISRSGGRTYYADSVKGRFTISRDNAKNTVYLEMISLKPEDTAVYYFASEIRFWYGYYYWGQGTQVTVSS | high polyreactivity

Row | Sequence | polyreactivity (PSR sort gate)
23 | QVQLVESGGGLVQAGGSLRLSCAASGSTFTANAMGWYRQAPGKERELVAAITNSDGSTYYADSVKGRFTISRDNAKNTVYLQMNSLKPEETAVYYCAKDYYACYWEMDYWGLGTQVTVSS | low polyreactivity
24 | QVQLVESVGGLVQAGGSLRLSCAASGRTFRYYTMGWYRQAPGKERELVASISWSGGSTYYADSVKGRFTISRDNAKNTVYLQMNSLKPEDTAVYYCNAVYGYRGVTNMDYWGQGTQVTVSS | high polyreactivity
25 | QVQLVESGGGLVPAGGSLRLSCAASGRTFFPYAMAWYRQAPGKEREFVAAITWSGGSTTYADSVKGRFTISRDNAKNTVYLQMNSLKPEDTAVYYCNAGRRRSYSYDYWGQGTQVTVSS | low polyreactivity
26 | QVQLVESGGGLVQAGGSLRLSCAASGSIFRTYAMGWYRQAPGKESELVAAISRSGSSTYYADSVKGRFTISRDNAKNTVYLQRTSLQPEDTAVYYCAAYWPLSYGARGSNYWGQGTQVTVSS | high polyreactivity
27 | QVQLVESGGGLVQAGGSLRLSCAASGITIYYYAMGWYRQAPGTERELVAAISTTVGSTYYADSVKGRFTISRDNAKNTVYLQMNSLKPEDTAVYYCNAYRVYAWIEYNYWGQGTQVTVSS | low polyreactivity
28 | QVQLVESGGGLVQAGGSLRLSCAASGRIFRSNAMGWYRQSPGKESELVAAITWRGRTYYADSVKGRFTISRDNAKNTVYLQMNSLKPEDTAVYYCNAYVRYGYDYWGHGTQVTVSS | high polyreactivity
29 | QVQLVESGGGLVQAGGSLRLSCAASGSIFTTYAMGWYRQAPGKERELVATITSSDSTNYADSVKGRFTISRDNAKNTVYLQMNSLKPEDTAVYYCNAGGDRTVSVAWYSADDYWGQGTQVTVSS | low polyreactivity
30 | QVQLVESGGGLVQAGGSLRLSCAASGSISVWYVMGWYRQAPGKEREFVAAIDYGGGSTYADSVKGRFTISRDNAKNTVYLQMNSLKPEDTAVYYCNADNWVYLYDYWGQGTQVTVSS | low polyreactivity
31 | QVQLVESGGGLVQAGGSLRLSCAASGSTFYKNAMGWYRQAPGKERELVAAITRSGGSTYYADSVKGRFTISRDNAKNTVYLQMNSLKPEDTAVYYCAYYPYGYDYWGQGTQVTVSS | high polyreactivity
32 | QVQLVESGGGLVQAGGSLRLSCAASGGTFRGYAMGWYRQATGKERELVAAITYSGGRTYYADSVKGRFTISRDNAKNTVYLQMNSLKPEDTAVYYCNAQSSGRLSYRYDYWGQGTQVTVSS | high polyreactivity
33 | QVQLVESGGGLVQAGGSLRLSCAASGITFTRYTMGWYRPAPGKERELVAAITGGSTYYADSVKGRFTISRDNAKNTVYLQMNSLKPEDTAVYYCAAAYESPYIQPLDYWGQGTQVTVSS | high polyreactivity
34 | QVQLVESGGGLVQAGGSHRLSCAASGNTFPLYAMGWYRQAPGKERELVAAISQRGGSTYYADSVKGRFTISRDNAKNTVYLQMNSLKPEDTAVYYCAATWADEYQYRRYYYWGHGTQVTVSS | high polyreactivity
35 | QVQLVESGGGLVQAGGSLRLSCAASGFTFGYYTMGWYRQAPGKERELVAAISSSGGSTYYADSVKGRFTISRDNAKNTVYLQMNSLKPEDTAVYYCAARSVRYGGRYDYWGQGTQVTVSS | high polyreactivity
36 | QVQLVESGGGLVQAGGSLRLTCAASGRIFIGNAMGWYRQAPGKERELVAAISSGGSTDYADSVKGRFTISRDNAKNTVYLQMNSLKPEDTAVYYCNADYEGYYDYGYWGQGTQVTVSS | low polyreactivity
37 | QVQLVESGGGLVQAGGSLRLSCAASGRIFSAYAMGWYRQAPGKERELVAAISRSRGRTYYADSVKGRVTISRDNAKNTVYLQMNSLKPEDTAVYYCAAARFAIVRGDYWGQGTQVTVSS | high polyreactivity
38 | QVQLVESGGGLVQAGGSLRLSCAASGITFGIYAMGWYRQAPGKERELVAAIDGSDGSTYYADSVKGRFTISRDNAKNTVYLQMKSLKPEDTAVYYCNAENGYSWDVFSDYWGQGTQVTVSS | low polyreactivity
39 | QVQLVESGGGLVQAGGSLRLSCASSGRIFGGYAMGWYRQAPGTELELVAAISSGGSTYYADSVKGRFTISRDNAKNTVYLQMNSLKPEDTAVYYCYAYYPWRWGSYPFDYWGQGTQVTVSS | high polyreactivity
40 | QVQLVESGGGLVQAGGSLRISCAASGSIFDYYAMGWYIQAPGKERELVAAISWSGGSTYYADSVKGRFTISRDNAKNTVYLQMNSLKPVDTAVYYCAAEYYGGEFDYWGQGTQVTVSS | low polyreactivity
41 | QVQLVDSGGGLVQAGGSLRLSCAASGRTFPSYGMGWYRQAPGKERELVAPITGGGSTYYADSVKGRFTISRDNAKNTVYLQINSLKPEDTAVYYCAKRPYYNRHYHYRSKYDYWGLGTQVTVSS | high polyreactivity
42 | QVQLVESGGGLVQAGGSLRLTCAASGSTFSKNGMGWYRQAPGKEREFVAAISGSGGSTYYADSVRGRFTISRDNAKNTVYLQMNSLKPEDTAVYYCAARRVWYYISAYGYWGQGTQVTVSS | high polyreactivity
43 | QDQLVESVGGLVQAGGSLRLSCAPTGSTFYGYGLAWSRQSPGKARELVAAITGSGDTTYYADSVKGRFTISRDYANNTVYLQMNSLKPEDTAVYYCNARWHAEYDYWGQGTQVTVSS | low polyreactivity
